“And” between values parts separate entries of the source, which are not always exact repeats. Equal values may be shown once.
Columns and labels:
[1] = molecular target: Mycoplasma penetrans methionyl-tRNA synthetase, full length, M568A (Mycoplasma penetrans); assay: cryo-EM structure
[2] = molecular target: Mycoplasma penetrans methionyl-tRNA synthetase, full length, M568A (Mycoplasma penetrans); assay: cryo-EM structure; remark: listed apart in the source
[3] = molecular target: Mycoplasma penetrans methionyl-tRNA synthetase, full length, M568A (Mycoplasma penetrans); assay: PAGE analysis

stoichiometry N [1]: 4 and 6
stoichiometry N [2]: 2
stoichiometry N [3]: 2
Substance: Mycoplasma penetrans methionyl-tRNA synthetase, full length, M568A (enzyme)
